Laboratory results published in the supplement of paper PMC10567573.

B1: ATL3 (parent)
chain: QELEEEIKELYENFCKHNGSKNVF

Variants of: B1
Assay: protein stability index of a GFP-peptide fusion (GPS, HEK-293T) (PSI 1-6); higher = more stable
Settings: c terminus: a fixed tail appended
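Also: lentivirally expressed fusions sorted by FACS into six bins by GFP to DsRed ratio, PSI derived from sequencing read proportions per bin multiplied by bin number.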

Protein stability index of substitutions, site by site:
N22: M 2.8 | G 2.28 | D 1.91 | P 3.25 | Q 2.98 | S 2.96 | V 2.62 | H 2.3 | A 2.96 | W 1.48 | F 2.59 | I 2.48 | R 3.3
E12: Y 2.03 | R 2.19 | C 2.35 | I 2.27 | A 2.37 | K 2.67 | G 3.27 | S 3.13 | Q 2.39 | T 2.83 | W 1.98 | N 2.53 | H 2.81 | L 2.12
V23: Q 2.68 | R 3.44 | S 2.38 | N 3.06 | F 2.22 | A 2.73 | Y 1.94 | D 2.16 | I 2.62 | C 2.27 | G 2.94 | E 3.07 | K 2.89 | H 3.56 | L 2.68 | T 2.49
L3: H 4 | R 4.33 | G 4.49 | P 3.9 | M 3.02 | K 4.55 | A 4.15 | D 4.33 | E 4.29 | T 3.83 | W 2.21 | N 2.42 | Y 2.85
L10: R 4.2 | F 3.23 | K 3.92 | T 4.54 | A 3.48 | C 4.14 | N 4.05 | P 4.23 | V 4.12 | G 4.41 | E 4.5 | H 4.33 | M 3.02 | I 3.14 | D 4.46 | S 4.25 | Y 3.92
N18: F 2.3 | Y 2.37 | E 2.36 | M 2.69 | K 2.55 | Q 2.68 | R 2.86 | L 3.23 | S 2.42
E9: S 2.39 | C 2.69 | T 2.59 | K 2.38 | G 2.44 | D 3.39 | V 2.4 | Y 2.09 | A 2.37 | P 3.24 | M 2.47 | H 2.27
C15: P 3.91 | W 3.73 | T 3.5 | F 3.03 | Q 3.67 | N 3.97 | L 1.97 | A 3.86 | G 4.07 | K 3.49 | D 4.08 | R 3.3 | I 2.07 | V 2.27 | S 3.89
G19: H 2.87 | C 2.31 | N 2.69 | M 2.46 | A 2.59 | K 2.4 | Q 2.73 | T 2.25 | D 2.46 | F 2.65 | P 3.03 | S 3.18 | Y 2.85
S20: L 2.41 | H 2.59 | C 2.28 | G 2.48 | D 1.97 | V 2.93 | F 2 | K 3.17 | Y 2.29 | P 3.46 | A 2.66 | N 2.48 | I 2.54 | E 2.04 | W 2.16 | R 3.77 | T 2.7 | Q 2.45
K21: G 2.49 | E 1.96 | A 2.25 | Q 2.55 | S 1.57 | Y 1.55 | M 1.85 | L 2.15 | W 1.81 | V 1.82 | H 2.16 | F 1.65 | I 2.12
F14: Y 3.53 | D 4.46 | S 4.58 | T 3.69 | K 4.5 | P 4.37 | V 3.53 | W 2.58 | I 3.16 | R 4.1 | L 3.27 | C 3.75 | H 4.07 | G 4.42 | A 4.29 | N 4.55 | E 5.25 | Q 4.49
E6: I 1.78 | C 2.32 | R 2.77 | K 2.48 | S 2.85 | V 2.08 | H 3 | N 3.29 | W 1.75 | P 3.28 | G 3.09 | F 1.93 | D 3.59 | M 2.19 | Q 3.18 | A 2.13 | L 1.75
H17: N 2.51 | R 2.6 | W 2.46 | I 2.94 | T 2.63 | E 2.51 | G 2.75 | P 3.34 | V 2.72 | D 2.69 | Y 2.42 | K 2.67
N13: A 1.72 | L 1.83 | K 2.15 | E 2.11 | S 2.6 | V 2.89 | C 2.26 | R 2.55 | G 3.76 | W 2.37 | Y 2.34 | H 2.83 | Q 2.13
K8: D 3.41 | S 3.37 | A 2.96 | Q 3.01 | G 3.67 | N 2.45 | L 2.24 | V 3.19 | E 3.63 | F 2.48 | H 2.86 | T 3.31 | R 2.24 | C 3.01
Y11: H 4.46 | P 5.15 | K 4.88 | R 4.39 | I 3.64 | E 4.54 | L 3.61 | N 4.68 | T 4.3 | F 2.64 | W 2.96 | G 4.74
F24: H 3.37 | G 2.73 | Q 2.93 | P 2.74 | N 3.07 | L 2.56 | T 3.11 | E 2.9 | Y 2.65 | W 2.46 | D 2.38
E2: V 2.3 | A 2.38 | G 3.14 | K 3.3 | R 2.8 | H 2.62 | L 2.21 | D 3.03 | T 3.43 | S 2.97 | Q 2.52 | F 2.57
Q1: S 3.41 | W 2.03 | F 2.09 | I 1.42 | E 3.67 | M 2.46 | T 3.19 | D 3.13 | P 2.83 | V 2.08 | L 1.76 | C 2.69 | Y 2.2 | G 3.31
E5: V 2.15 | R 2.02 | H 2.42 | G 3.25 | D 3.27 | T 2.45 | I 1.8 | C 2.33 | K 2.21 | S 2.17 | M 2.81 | A 1.96 | N 2.51 | W 1.73 | Y 1.9
K16: I 2.86 | T 3.03 | W 2.91 | L 3.09 | R 2.73 | E 3.81 | D 3.53 | Q 3.11 | H 2.74 | V 3.15 | S 2.99 | Y 2.49 | A 3.17 | G 3.51 | P 3.88
E4: G 3.2 | I 1.79 | R 2.66 | S 3.01 | M 2.14 | P 3.51 | Y 2.31 | F 2.2 | D 3.62 | V 2.26 | N 3.96 | T 3.34
I7: K 4.71 | Q 4.5 | R 4.17 | F 3.49 | W 2.26 | G 4.73 | T 4.24 | E 4.94 | A 4.55 | P 4.5 | V 3.75 | M 3.8 | L 3.03 | Y 4.21 | S 4.09 | N 4.52
